Laboratory results reported in US20220306695A1, “COMPSTATIN ANALOGUES AND THEIR MEDICAL USES” (priority 2019, published 2022).
One block for each binder: values may come before it. Positions of bridges follow the written chain, without caps; N, C: chain ends.

What was measured:
[1] = target: T1, Human C3 (human, UniProt P01024 23-1663); assay: cell-based or functional assay
[2] = target: T1, Human C3; assay: SPR, C3 immobilised
Method: Surface plasmon resonance (SPR) was used to characterize peptides with respect to their binding affinity (Kd) for C3. Human C3 (Complement tech cat #A1 13c) was immobilised on individual flow cells of CM5 sensor chips (GE Healthcare) using standard amine coupling to a density of approximately 3000 resonance units (RU) in a buffer consisting of 10 mM phosphate pH 7.4, 150 mM NaCl, 0.05% Tween20.
For interaction experiments a multi-cycle experiment approach was used and performed using either a Biacore™ T200 or Biacore™ X100 instrument (GE Healthcare) at 25° C. Peptides were injected in increasing concentration series (5-8 different concentrations) for 60-120 s at a flow rate of 30 μL/min in a buffer consisting of 10 mM Tris buffer at pH 7.4, with 150 mM NaCl and 0.05% Tween20. This was followed by a dissociation period for up to 10 min. The C3 surface was regenerated between runs by a 45 s injection of 3 M MgCl₂.
Sensorgrams were double-referenced (reference surface, blanks) prior to analysis of the kinetic profiles by globally fitting data to a 1:1 Langmuir binding model to obtain association and dissociation rates for calculation of the equilibrium dissociation constant Kd. Each peptide was tested at in at least 2 independent experiments.

[3] = target: T1, Human C3; assay: cell-based or functional assay; remark: listed apart in the source

T1 sequence (P01024 23-1663 limits assumed): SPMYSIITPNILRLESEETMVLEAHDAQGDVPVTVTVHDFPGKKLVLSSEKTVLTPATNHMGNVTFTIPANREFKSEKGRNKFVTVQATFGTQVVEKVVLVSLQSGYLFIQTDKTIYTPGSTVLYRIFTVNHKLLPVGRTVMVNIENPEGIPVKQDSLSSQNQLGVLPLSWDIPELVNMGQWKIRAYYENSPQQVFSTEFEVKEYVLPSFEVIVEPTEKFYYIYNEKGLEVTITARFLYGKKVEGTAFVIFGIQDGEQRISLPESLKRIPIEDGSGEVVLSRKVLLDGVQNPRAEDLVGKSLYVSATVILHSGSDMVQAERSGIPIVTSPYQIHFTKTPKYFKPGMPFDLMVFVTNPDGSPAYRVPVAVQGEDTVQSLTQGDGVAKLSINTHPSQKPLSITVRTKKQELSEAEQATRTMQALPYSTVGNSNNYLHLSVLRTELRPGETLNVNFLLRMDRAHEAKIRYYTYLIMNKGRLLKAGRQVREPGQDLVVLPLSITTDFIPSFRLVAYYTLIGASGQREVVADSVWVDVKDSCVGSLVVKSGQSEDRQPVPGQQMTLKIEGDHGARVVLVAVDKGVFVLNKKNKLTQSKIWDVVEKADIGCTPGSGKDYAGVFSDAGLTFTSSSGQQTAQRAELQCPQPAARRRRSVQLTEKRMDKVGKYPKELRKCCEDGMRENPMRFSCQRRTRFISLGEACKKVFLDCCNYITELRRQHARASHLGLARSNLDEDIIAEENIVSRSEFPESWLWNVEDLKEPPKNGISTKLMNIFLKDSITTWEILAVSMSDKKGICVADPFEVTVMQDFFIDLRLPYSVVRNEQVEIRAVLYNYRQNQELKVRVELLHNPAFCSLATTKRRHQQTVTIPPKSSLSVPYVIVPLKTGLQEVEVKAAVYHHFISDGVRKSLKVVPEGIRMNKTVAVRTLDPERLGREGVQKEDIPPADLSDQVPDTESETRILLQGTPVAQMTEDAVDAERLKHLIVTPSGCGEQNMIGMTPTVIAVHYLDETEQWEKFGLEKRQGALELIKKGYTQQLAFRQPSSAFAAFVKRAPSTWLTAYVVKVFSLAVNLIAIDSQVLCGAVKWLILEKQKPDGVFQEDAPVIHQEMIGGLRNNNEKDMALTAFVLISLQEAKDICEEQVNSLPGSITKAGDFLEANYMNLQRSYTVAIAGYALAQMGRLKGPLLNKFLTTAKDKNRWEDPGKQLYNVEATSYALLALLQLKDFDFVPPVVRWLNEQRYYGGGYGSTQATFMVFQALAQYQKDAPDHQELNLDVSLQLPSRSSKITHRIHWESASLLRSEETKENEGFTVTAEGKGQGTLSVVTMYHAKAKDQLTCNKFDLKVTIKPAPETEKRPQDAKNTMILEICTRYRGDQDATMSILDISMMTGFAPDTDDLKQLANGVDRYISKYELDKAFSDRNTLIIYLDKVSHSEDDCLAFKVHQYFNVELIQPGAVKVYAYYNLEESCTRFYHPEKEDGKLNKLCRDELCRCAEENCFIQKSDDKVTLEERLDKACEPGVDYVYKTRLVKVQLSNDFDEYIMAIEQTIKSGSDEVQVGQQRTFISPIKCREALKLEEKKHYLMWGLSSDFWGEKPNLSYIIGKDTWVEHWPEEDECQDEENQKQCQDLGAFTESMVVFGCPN

Kd [2]: 230 nM
B1: Compound D (peptide)
peptide: Ac-ICVWQDWGEHRCTGAES-NH2
modifications: disulfide 2-12
SMILES: CC[C@H](C)[C@H](NC(C)=O)C(=O)N[C@H]1CSSC[C@@H](C(=O)N[C@H](C(=O)NCC(=O)N[C@@H](C)C(=O)N[C@@H](CCC(=O)O)C(=O)N[C@@H](CO)C(N)=O)[C@@H](C)O)NC(=O)[C@H](CCCNC(=N)N)NC(=O)[C@H](Cc2c[nH]cn2)NC(=O)[C@H](CCC(=O)O)NC(=O)CNC(=O)[C@H](Cc2c[nH]c3ccccc23)NC(=O)[C@H](CC(=O)O)NC(=O)[C@H](CCC(N)=O)NC(=O)[C@H](Cc2c[nH]c3ccccc23)NC(=O)[C@H](C(C)C)NC1=O
CP hemolysis IC50 [1]: 210 nM

Kd [2]: 130 nM
B2: Compound A (peptide)
peptide: Ac-ICVWQDWGEHRCT-NH2
modifications: disulfide 2-12
SMILES: CC[C@H](C)[C@H](NC(C)=O)C(=O)N[C@H]1CSSC[C@@H](C(=O)N[C@H](C(N)=O)[C@@H](C)O)NC(=O)[C@H](CCCNC(=N)N)NC(=O)[C@H](Cc2c[nH]cn2)NC(=O)[C@H](CCC(=O)O)NC(=O)CNC(=O)[C@H](Cc2c[nH]c3ccccc23)NC(=O)[C@H](CC(=O)O)NC(=O)[C@H](CCC(N)=O)NC(=O)[C@H](Cc2c[nH]c3ccccc23)NC(=O)[C@H](C(C)C)NC1=O
CP hemolysis IC50 [1]: 350 nM
IC50, CP hemolysis [3]: 350 nM

Kd [2]: 160 nM
B3: Compound G (peptide)
peptide: Ac-ICVWQDWGEHRCS-NH2
modifications: disulfide 2-12
SMILES: CC[C@H](C)[C@H](NC(C)=O)C(=O)N[C@H]1CSSC[C@@H](C(=O)N[C@@H](CO)C(N)=O)NC(=O)[C@H](CCCNC(=N)N)NC(=O)[C@H](Cc2c[nH]cn2)NC(=O)[C@H](CCC(=O)O)NC(=O)CNC(=O)[C@H](Cc2c[nH]c3ccccc23)NC(=O)[C@H](CC(=O)O)NC(=O)[C@H](CCC(N)=O)NC(=O)[C@H](Cc2c[nH]c3ccccc23)NC(=O)[C@H](C(C)C)NC1=O
CP hemolysis IC50 [1]: 180 nM
